The test system of the data set is C=C(OP(=O)(O)O)C(=O)O. The data set is described as follows: purified protein. The conditions noted are these: Hepes pH 8.0, 25 C, apparent.

Chain of PK (pyruvate kinase) (Oryctolagus cuniculus) (chain, as listed by the source): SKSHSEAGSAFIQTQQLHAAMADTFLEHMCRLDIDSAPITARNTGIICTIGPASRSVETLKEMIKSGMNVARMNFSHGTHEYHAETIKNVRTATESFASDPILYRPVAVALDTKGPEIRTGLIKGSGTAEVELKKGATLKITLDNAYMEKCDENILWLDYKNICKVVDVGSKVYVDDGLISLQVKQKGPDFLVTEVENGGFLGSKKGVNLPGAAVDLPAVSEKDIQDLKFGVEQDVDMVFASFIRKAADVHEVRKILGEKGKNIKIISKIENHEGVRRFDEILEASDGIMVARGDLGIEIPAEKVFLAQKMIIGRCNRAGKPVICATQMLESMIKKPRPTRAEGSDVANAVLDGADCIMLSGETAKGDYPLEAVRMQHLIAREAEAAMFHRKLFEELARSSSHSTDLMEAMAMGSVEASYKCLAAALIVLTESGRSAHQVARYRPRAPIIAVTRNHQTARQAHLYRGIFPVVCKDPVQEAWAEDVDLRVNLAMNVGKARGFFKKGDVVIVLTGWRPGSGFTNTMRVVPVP

Consider “PK (pyruvate kinase) (Oryctolagus cuniculus)”, for which the Km is 40 µM and the kcat came out at 160 s⁻¹.

(Values after article PMC4143292, “An Enzymatic Platform for the Synthesis of Isoprenoid Precursors” (PLoS ONE, 2014).)
